Measurements published in patent US20080267980A1 (MUSC FOUNDATION FOR RESEARCH DEVELOPMENT, published 2008).
One block for each binder: values may come before it.

Columns and labels:
[1] = molecular target: T1, Human C3dg-biotin (human, UniProt P01024 955-1303, biotin (site not stated) in the SPR experiments); test: ELISA, wells coated with purified C3dg, anti-complement inhibitor antibodies
T1 construct: domain: C3dg; In the ELISA it is purified C3dg coated on wells; also called C3dg ligand; CR2 ligand C3dg
Description: ELISA experiments were conducted as previously described. In ELISA experiments, CR2-containing constructs were added to wells coated with purified C3dg. Binding was detected by means of anti-complement inhibitor antibodies and enzyme-conjugated secondary antibodies. All CR2 containing constructs, but not sCD59 and sDAF bound to C3d.

[2] = molecular target: T1, Human C3dg-biotin; test: SPR, C3dg-biotin captured on streptavidin chip
Description: (§1) Kinetic analysis of the interaction of the CR2 fusion proteins with C3dg-biotin was performed using surface plasmon resonance (SPR) measurements made on a BIAcore 3000 instrument. Human C3dg-biotin, prepared as described (36), was bound to the surface of BIAcore streptavidin (SA) sensor chips by injecting C3dg-biotin at 50 μg/ml over the surface of one flow cell of the chip at 2 μl/minute for 20 minutes. The flow buffer was 0.5×PBS+0.05% Tween 20. The SPR signal from captured C3dg generated BIAcore response units ranging from 250-500. Control streptavidin-coated flow cells were run in the absence of protein. Binding was evaluated over a range of CR2 fusion protein concentrations (15.6-500 nM) in 0.5×PBS, 0.05% Tween 20 at 25° C. at a flow rate of 25 μl/minute. CR2 fusion protein samples were injected in 50 μl aliquots using the kinject command. Association of the fusion proteins with the ligand was monitored for 120 seconds, after which the complex was allowed to dissociate in the presence of buffer only for an additional 120 seconds. […] Binding data were fitted to a 1:1 Langmuir binding model using BIAevaluation Version 3.1 software (BIAcore) and evaluated for best fit by low residual and χ² values. […]
(§2) A comparison of the affinity of the different recombinant fusion proteins for the CR2 ligand C3dg was determined by surface plasmon resonance measurements. […]

[3] = molecular target: T1, Human C3dg-biotin; test: SPR, biotinylated C3dg on streptavidin BIAcore chip
Description: as §1, §2

[4] = molecular target: T1, Human C3dg-biotin; test: SPR (referred to)
Description: as §1, §2

T1 sequence (P01024 955-1303 limits assumed): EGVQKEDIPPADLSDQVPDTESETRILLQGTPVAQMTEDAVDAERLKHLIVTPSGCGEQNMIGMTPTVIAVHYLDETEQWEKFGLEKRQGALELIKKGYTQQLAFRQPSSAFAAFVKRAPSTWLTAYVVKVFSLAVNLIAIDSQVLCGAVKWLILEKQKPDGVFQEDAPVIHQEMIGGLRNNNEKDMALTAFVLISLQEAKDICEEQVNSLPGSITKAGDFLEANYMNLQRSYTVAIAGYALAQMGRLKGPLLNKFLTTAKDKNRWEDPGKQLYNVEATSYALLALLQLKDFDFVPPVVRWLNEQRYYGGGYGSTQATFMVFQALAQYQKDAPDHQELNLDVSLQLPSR

binding result [2]: no binding
B2: soluble DAF (other, human, UniProt P08174 35-283, looked up)
chain: DCGLPPDVPNAQPALEGRTSFPEDTVITYKCEESFVKIPGEKDSVICLKGSQWSDIEEFCNRSCEVPTRLNSASLKQPYITQNYFPVGTVVEYECRPGYRREPSLSPKLTCLQNLKWSTAVEFCKKKSCPNPGEIRNGQIDVPGGILFGATISFSCNTGYKLFGSTSSFCLISGSSVQWSDPLPECREIYCPAPPQIDNGIIQGERDHYGYRQSVTYACNKGFTMIGEHSIYCTVNNDEGEWSGPPPEC
notes: range 1-249; also called sDAF; untargeted sDAF

binding result [3]: no binding
B3: soluble CD59 (other, human, UniProt P13987 26-102, looked up)
chain: LQCYNCPNPTADCKTAVNCSSDFDACLITKAGLQVYNKCWKFEHCNFNDVTTRLRENELTYYCCKKDLCNFNEQLEN
notes: also called sCD59; untargeted sCD59

Further lines, the binder ahead of its results:

B1: DAF-CR2 (other)
chain: DCGLPPDVPNAQPALEGRTSFPEDTVITYKCEESFVKIPGEKDSVICLKGSQWSDIEEFCNRSCEVPTRLNSASLKQPYITQNYFPVGTVVEYECRPGYRREPSLSPKLTCLQNLKWSTAVEFCKKKSCPNPGEIRNGQIDVPGGILFGATISFSCNTGYKLFGSTSSFCLISGSSVQWSDPLPECREIYCPAPPQIDNGIIQGERDHYGYRQSVTYACNKGFTMIGEHSIYCTVNNDEGEWSGPPPECRSSGGGGSGGGGSGGGGSISCGSPPPILNGRISYYSTPIAVGTVIRYSCSGTFRLIGEKSLLCITKDKVDGTWDKPAPKCEYFNKYSSCPEPIVPGGYKIRGSTPYRHGDSVTFACKTNFSMNGNKSVWCQANNMWGPTRLPTCVSVFPLECPALPMIHNGHHTSENVGSIAPGLSVTYSCESGYLLVGEKIINCLSSGKWSAVPPTCEEARCKSLGRFPNGKVKEPPILRVGVTANFFCDEGYRLQGPPSSRCVIAGQGVAWTKMPVC
notes: also called human DAF-CR2; fusion protein with CR2 at the C-terminus
binding result [1]: binds

B4: CR2-CD59 (other)
chain: ISCGSPPPILNGRISYYSTPIAVGTVIRYSCSGTFRLIGEKSLLCITKDKVDGTWDKPAPKCEYFNKYSSCPEPIVPGGYKIRGSTPYRHGDSVTFACKTNFSMNGNKSVWCQANNMWGPTRLPTCVSVFPLECPALPMIHNGHHTSENVGSIAPGLSVTYSCESGYLLVGEKIINCLSSGKWSAVPPTCEEARCKSLGRFPNGKVKEPPILRVGVTANFFCDEGYRLQGPPSSRCVIAGQGVAWTKMPVCSGGGGSLQCYNCPNPTADCKTAVNCSSDFDACLITKAGLQVYNKCWKFEHCNFNDVTTRLRENELTYYCCKKDLCNFNEQLEN
notes: also called CR2-human CD59; fusion protein with CR2 at the N-terminus
binding result [4]: binds
